EMSA: ExsA-exsC promoter DNA complex with increasing concentrations of GST-Dap2 data for 1 substance are collected here from doi:10.1101/2025.03.13.642734.

For the assay, the target named is ExsA-His6 (Pseudomonas aeruginosa) (UniProt P26993).
Sequence of UniProt P26993 (P26993 whole entry): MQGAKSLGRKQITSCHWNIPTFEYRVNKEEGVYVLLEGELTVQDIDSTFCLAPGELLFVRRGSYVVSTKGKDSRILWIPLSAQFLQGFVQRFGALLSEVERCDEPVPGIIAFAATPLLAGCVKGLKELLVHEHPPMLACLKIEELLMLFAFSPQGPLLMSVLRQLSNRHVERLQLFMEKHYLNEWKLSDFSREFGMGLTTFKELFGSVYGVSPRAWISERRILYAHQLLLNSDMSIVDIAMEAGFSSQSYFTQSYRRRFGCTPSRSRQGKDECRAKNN

As for GST-Dap2 (natural protein), the EMSA: ExsA-exsC promoter DNA complex with increasing concentrations of GST-Dap2 was determined as 1 µM.
